In the supplement of paper PMC10567573:

B1: MCOLN1 (parent)
chain: EEEDLRRRLKYFFMSPCDKFRAKG
B2: SEC22B (parent)
chain: AKQLFRKLNEQSPTRCTLEAGAMT

Variants of: B1
Test: protein stability index of a GFP-peptide fusion (GPS, HEK-293T) (PSI 1-6); higher = more stable
Settings: c terminus: a fixed tail appended
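Note: lentivirally expressed fusions sorted by FACS into six bins by GFP to DsRed ratio, PSI derived from sequencing read proportions per bin multiplied by bin number.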

| Variant | protein stability index |
| --- | --- |
| L5D | 3.43 |
| L5E | 3.53 |
| L5A | 2.91 |
| L5F | 3.09 |
| L5G | 3.05 |
| L5C | 2.82 |
| D4S | 1.42 |
| D4R | 2.23 |
| D4I | 1.71 |
| D4F | 1.42 |
| D4E | 2.08 |
| D4M | 1.48 |
| D4W | 1.44 |
| D4P | 2.94 |
| D4L | 2.13 |
| D4C | 1.8 |
| D4H | 2.04 |
| D4Y | 2.18 |
| D4K | 1.83 |
| D4Q | 1.57 |
| D4V | 1.74 |
| D4T | 2.49 |
| D4A | 1.13 |
| D4N | 2.04 |
| D4G | 3.22 |
| E3L | 1.37 |

| Variant | protein stability index |
| --- | --- |
| E3W | 1.14 |
| E3N | 1.91 |
| E3S | 2.9 |
| E3M | 1.15 |
| E3A | 1.62 |
| E3H | 2.33 |
| E3I | 1.64 |
| E3F | 2.04 |
| E3Q | 1.5 |
| E3Y | 1.85 |
| E3R | 2.15 |
| E3D | 2.41 |
| E3P | 2.25 |
| E3G | 2.12 |
| E3V | 2.83 |
| E3C | 2.65 |
| E3T | 1.52 |
| E3K | 1.87 |
| E2Q | 2.27 |
| E2W | 4.34 |
| E2I | 2.21 |
| E2P | 2.23 |
| E2N | 1.96 |
| E2D | 1.92 |
| E2S | 1.86 |
| E2H | 2.72 |

| Variant | protein stability index |
| --- | --- |
| E2T | 1.72 |
| E2Y | 1.94 |
| E2R | 3.07 |
| E2M | 2.58 |
| E2G | 1.67 |
| E2A | 2.37 |
| E1H | 3.05 |
| E1I | 2.19 |
| E1W | 2.2 |
| E1A | 2.53 |
| E1V | 1.51 |
| E1S | 2.24 |
| E1D | 2.96 |
| E1T | 3.34 |
| E1K | 1.76 |
| E1N | 1.51 |
| E1L | 2.16 |
| E1F | 2.29 |
| E1Q | 1.62 |
| E1G | 2.46 |
| E1M | 2.08 |
| E1P | 2.14 |
| E1Y | 2.27 |
| E1C | 3.42 |
| E1R | 1.36 |

Variants of: B2
Test: as above
Settings: c terminus: a fixed tail appended

| Variant | protein stability index |
| --- | --- |
| K2E | 2.92 |
| K2T | 1.83 |
| K2L | 2.1 |
| Q3S | 1.88 |
| Q3V | 2.11 |
| Q3A | 2.2 |
| S12I | 1.86 |
| S12V | 1.45 |
| K7N | 2.47 |
| K7T | 2.54 |
| R15W | 1.97 |
| R15Y | 2.82 |
| R15E | 2.81 |
| R15T | 2.67 |
| F5I | 2.3 |
| F5Q | 3.23 |
| F5A | 3.67 |
| F5E | 2.97 |
| F5K | 3.47 |
| A22C | 2.07 |
| A22N | 2.8 |
| P13I | 1.61 |
| P13A | 2.48 |

| Variant | protein stability index |
| --- | --- |
| P13K | 1.88 |
| L8F | 2 |
| L8E | 3.13 |
| L8P | 2.82 |
| L8R | 3.84 |
| M23Y | 2.37 |
| T24F | 1.99 |
| T24D | 2.39 |
| T24R | 2.14 |
| A1Q | 2.44 |
| A1V | 2.16 |
| L18C | 2.66 |
| L18P | 3.24 |
| L18V | 2.78 |
| L18Q | 2.71 |
| L18M | 2.16 |
| T17N | 2.22 |
| T17K | 1.94 |
| T17Q | 2.4 |
| T17M | 2.46 |
| N9S | 1.8 |
| N9R | 2.88 |
| E10P | 1.34 |

| Variant | protein stability index |
| --- | --- |
| E10R | 2.22 |
| E10N | 1.95 |
| R6H | 2.46 |
| R6S | 2.53 |
| R6L | 2.99 |
| R6K | 2.07 |
| R6C | 2.42 |
| R6Y | 2.15 |
| R6F | 1.49 |
| R6E | 2.46 |
| Q11Y | 1.35 |
| Q11K | 1.96 |
| Q11V | 1.48 |
| Q11H | 1.99 |
| E19A | 2.28 |
| E19N | 2.95 |
| E19L | 2.35 |
| E19R | 2.49 |
| E19Y | 2.18 |
| E19G | 2.12 |
| E19Q | 2.87 |
| E19D | 3.05 |
| C16Q | 3.47 |

| Variant | protein stability index |
| --- | --- |
| C16R | 3.27 |
| C16A | 3.07 |
| C16E | 3.85 |
| C16I | 3.12 |
| C16Y | 2.79 |
| C16H | 3.47 |
| C16T | 3.64 |
| C16K | 2.95 |
| L4K | 2.89 |
| L4I | 1.99 |
| L4G | 2.94 |
| G21K | 2.11 |
| G21L | 2.12 |
| G21S | 2.51 |
| G21W | 1.61 |
| T14L | 1.94 |
| T14W | 2.01 |
| T14P | 2.35 |
| T14F | 1.63 |
| T14E | 3.53 |
| T14G | 1.74 |
